This is an account of results in patent US20150064751.

The data set has as its system cleavage control protein containing an enterokinase cleavage site (Asp-Asp-Asp-Asp-Lys).

Consider recombinant enterokinase (Novagen), for which the “protease cleavage, detection of the 16 kDa cleavage fragment by immunoblot (2 h, room temperature)” value is on record as “The target protein was specifically cleaved by recombinant enterokinase (lane 2)”.
